According to paper PMC6538167:

Target: Sodium/potassium-transporting ATPase subunit alpha-1 (human (endogenous in frontal lobe tissue)) (UniProt P05023)

SST14 (peptide)
total ^86Rb^+ uptake in HEK293 cells in the presence of SST14 (50 μM), compared to controls: 74.4 % of control | total ^86Rb^+ uptake in ReN (ReNcell VM) cells in the presence of SST14 (50 μM), compared to controls: 91.5 % of control | total ^86Rb^+ uptake in mouse N2a cells in the presence of SST14 (50 μM), compared to controls: 53.6 % of control
